Test results published in publication PMC7971519.

Biological target: PRRSV nonstructural protein 2 transframe product (nsp2TF) (porcine reproductive and respiratory syndrome virus 2 (PRRSV-2), isolate SD95-21)
Experiment: co-IP; lysates of PRRSV-infected MARC-145 cells collected at 8, 10 and 12 hpi; IP with rabbit anti-nsp2TF pAb or anti-nsp2 pAb (C-terminal peptides); blots probed with anti-GP5 and anti-M mAbs; densitometry; mock-infected lysate as control

| Substance | fold more M protein co-precipitated than in the nsp2 IP, 8 hpi [fold] | fold more M protein co-precipitated than in the nsp2 IP, 10 hpi [fold] | fold more M protein co-precipitated than in the nsp2 IP, 12 hpi [fold] | fold more GP5 co-precipitated than in the nsp2 IP, 8 hpi [fold] | fold more GP5 co-precipitated than in the nsp2 IP, 10 hpi [fold] | fold more GP5 co-precipitated than in the nsp2 IP, 12 hpi [fold] |
| --- | --- | --- | --- | --- | --- | --- |
| PRRSV membrane (M) protein (natural protein) | 3.38 | 3.44 | 2.77 | – | – | – |
| PRRSV GP5 glycoprotein (natural protein) | – | – | – | 3.39 | 3.26 | 3.36 |
